The text below walks through data of paper PMC5039417 (2016).

For orientation: IC50 means the concentration at which inhibition is half-maximal. Read a low IC50 as greater potency.

The target in the assay is HLA-A*0201 molecules on T2 cells (MHC class I/β2-microglobulin complex) (human (endogenous in T2) | ). Description: FACS; competition with F1-peptide on T2 cells.

On to SLSYTNPAV [P7:SLSYTNPAV, MUC1 cytoplasmic tail peptide], for which the concentration for half-maximal inhibition (IC50) was 0.419 µg/mL.
